Laboratory results as given in patent publication US5843750A, “Sorbitol kinase, process for producing the same, and substantially pure microorganism” (priority 1994, dated 1998).

Legend:
[1] = Optimum pH/temperature, pH stability and heat stability of sorbitol kinase; format: physicochemical, Erwinia sp. SK-472-20
Procedure: One milliliter of a reaction mixture consisting of 0.2M Tris-HCl buffer solution (pH 8.5) 0.2 ml, 0.1M ATP 0.02 ml, 0.1M MgCl2 0.02 ml, 100 U/ml sorbitol-6-phosphate dehydrogenase (refer to referential example) 0.05 ml, 10 mM NAD 0.1 ml, 100 U/ml diaphorase (Asahi Chemical Ind. Co.) 0.05 ml, 0.25% NTB 0.1 ml, 1M sorbitol 0.1 ml, 10% Triton X-100 0.01 ml and distilled water 0.3 ml was pre-heated at 37° C. for 1 minute, and the enzyme solution 20 μl was added thereto, then the mixture was incubated for 10 minutes.
Reaction was terminated by adding 0.1N HCl 2 ml and optical density of the mixture was measured using 1.0 cm cell at 550 nm within 5 minutes (As). Also optical density of distilled water 20 μl in place of the enzyme solution was measured in the same manner as above as a blank test (Ab). Enzymatic activity is determined by difference in the absorption between the optical density of the enzyme solution (As) and the blank test (Ab), i.e. (As-Ab). A unit of enzyme activity is defined as an amount of enzyme which generate 1 μm of reduced NAD in one minutes at 37° C. and calculated by the following equation.
Optimum pH is measured by the above enzyme assay method. In FIG. 1, 100 mM phosphate buffer is used for pH 6.0-8.0 (-.largecircle.-); 100 mM Tris-HCl buffer for pH 7.0-9.0 (-.circle-solid.-); and 100 mM glycine-sodium hydroxide buffer for pH 9.0-10.5 (-.quadrature.-). Optimum pH is 8.5-9.5.
100 mM buffer solutions containing sorbitol kinase 0.5 U/ml were treated at 60° C. for 15 minutes, and remaining activity was measured by the above enzyme assay method. In FIG. 2, 100 mM acetate buffer is used for pH 4.5-6.0 (-.largecircle.-); 100 mM phosphate buffer for pH 6.0-8.0 (-.circle-solid.-); 100 mM Tris-HCl buffer for pH 7.0-8.5 (-.quadrature.-); and 100 mM glycine-sodium hydroxide buffer for pH 9.0-10.5 (-.box-solid.-). Most preferable stability is observed at pH 6.5-10.0.
Optimum temperature of the enzyme was measured by changing temperature range at 37° C.-60° C. according to the above assay method. Result is shown in FIG. 3, in which optimum temperature of the present enzyme is approx. 50° C.
100 mM Tris-HCl buffer solution (pH 8.5) containing sorbitol kinase 0.5 U/ml was treated at various temperatures for 15 minutes, and remaining activity was measured by the above enzyme assay method. Results are shown in FIG. 4 in which the enzyme is stable at least up to 60° C.

[2] = Physico-chemical properties of sorbitol kinase produced by the transformant; format: physicochemical, Erwinia sp. SK-472-20 gene expressed in E.coli; details: enzyme produced by transformant
[3] = Isoelectric point of sorbitol kinase (electrophoresis using carrier ampholytes); format: physicochemical, Erwinia sp. SK-472-20
From the text: 4.8±0.5 (electrophoresis using carrier ampholytes)

B1: sorbitol kinase: ATP-utilizing sorbitol kinase of Erwinia sp. SK-472-20, stable up to 60° C., amino acids 1 to 313 of SEQ ID NO: 1; also produced by E.coli transformant (protein)
chain: MRIGIDLGGTKTEVIALSEQGEQLFRHRLPTPRDDYHQTIETIARLVDMAEQATGQTGTVGMGIPGSISPYTGVVKNANSTWLNGQPFDKDLSQRLNREVRLANDANCLAVSEAIDGAAAGAQTVFAVIIGTGCGAGVALGGRAHIGGNGTAGEWGHNPLPWMDEDELKYRAEVPCYCGKQGCIETFISGTGFATDYHRLSGQPLKGNEIMRRVGEHDPVAELALSRYEMRLAKSLAHVVNILDPDVIVLGGGMSNVDRLYATVPNLVKQWVFGGECETPIRKRCTGTPAACAAPRGSGRYSHSPSPYVRGAG
[1]; 100 mM Tris-HCl pH 8.5, 0.5 U/ml, 15 minutes, remaining activity, FIG. 4
  Heat stability (stable up to): ≥ 60 °C
[1]; 100 mM phosphate, Tris-HCl, glycine-sodium hydroxide buffers, FIG. 1
  Optimum pH: 8.5-9.5
[1]; 0.5 U/ml in 100 mM buffers, 60° C. for 15 minutes, remaining activity, FIG. 2
  pH stability (most preferable stability): 6.5-10.0
[1]; range 37° C.-60° C., FIG. 3
  Optimum temperature: approx. 50 °C
[2]
  Heat stability (stable up to): up to 60 °C
  Isoelectric point: 4.80±0.5
  Optimum pH: 8.5-9.5
  pH stability: 6.5-10.0
[3]
  Isoelectric point: 4.8±0.5
